Measured values as given in paper PMC11560936.
Read-outs that look alike come from different tables or passages of the source.

Legend:
Assay in all cases: ITC
[1] = biological target: Penaeus monodon Rab7 wild type (PmRab7-WT) (Penaeus monodon) (UniProt Q00P14)
[2] = biological target: Penaeus monodon Rab7 wild type (PmRab7-WT) (Penaeus monodon) (UniProt Q00P14); remark: listed apart in the source
[3] = biological target: Penaeus monodon Rab7 wild type (PmRab7-WT) (Penaeus monodon) (UniProt Q00P14); remark: listed apart in the source
[4] = biological target: Penaeus monodon Rab7 L129F mutant (PmRab7-L129F) (Penaeus monodon) (UniProt Q00P14)
[5] = biological target: Penaeus monodon Rab7 Q67L mutant (PmRab7-Q67L) (Penaeus monodon) (UniProt Q00P14)
[6] = biological target: Penaeus monodon Rab7 T22N mutant (PmRab7-T22N) (Penaeus monodon) (UniProt Q00P14)
[7] = biological target: Penaeus monodon Rab7 wild type (PmRab7-WT) (Penaeus monodon) (UniProt Q00P14); remark: listed apart in the source
[8] = biological target: Penaeus monodon Rab7 wild type (PmRab7-WT) (Penaeus monodon) (UniProt Q00P14); remark: listed apart in the source

Substance: White spot syndrome virus envelope protein VP28 with His6 tag (VP28-His6) (natural protein)
- Kd [1]: 924 nM
- dH [1]: -15.4 kcal/mol
- stoichiometry N [1]: 0.795 VP28:Rab7
- Kd [2]: 826 nM
- dH [2]: -17 kcal/mol
- stoichiometry N [2]: 0.738 VP28:Rab7
- Kd [3]: 1920 nM
- dH [3]: -20.2 kcal/mol
- stoichiometry N [3]: 0.703 VP28:Rab7
- Kd [4]: 128 nM
- dH [4]: -25.7 kcal/mol
- stoichiometry N [4]: 0.519 VP28:Rab7
- Kd [5]: 1990 nM
- dH [5]: -33 kcal/mol
- stoichiometry N [5]: 0.582 VP28:Rab7
- Kd [6]: 334 nM
- dH [6]: -20 kcal/mol
- stoichiometry N [6]: 0.625 VP28:Rab7
- Kd [7]: 22.5 nM
- dH [7]: -22.1 kcal/mol
- stoichiometry N [7]: 0.543 VP28:Rab7
- Kd [8]: 352 nM
- dH [8]: -7.23 kcal/mol
- stoichiometry N [8]: 0.682 VP28:Rab7
